{"source": "patent US20210293791A1", "about": "“BACTERIAL VAGINOSIS DIAGNOSTIC” (MOLOGIC LTD, priority 2018, published 2021)", "key": {"[1]": {"test_system": "MOL136 and MOL136c", "assay": "Lateral flow assay with gold-labelled antisera on streptavidin capture zone", "assay_type": "binding", "settings": "gold-labelled CF1064; peptide 1.3 ng/ml (38 μg per strip)", "method": "CF1064 was conjugated to gold particles in optimised conditions (15 μg/ml loading in 10 mM sodium borate buffer; pH 8.0) and assayed against MOL136 and MOL136c at a final concentration of 1.3 ng/ml (38 μg per strip). Thus, a capture zone was first formed on each lateral flow test strip using 1.5 mg/ml streptavidin. Then, 3 μl of each peptide (12.5 ng/ml peptide in PBST) was mixed with 10 μl of gold-labelled CF1064 and 15 μl of running buffer (0.5 M Tris at pH 7.5+3% BSA+0.5% Triton X-100) before each sample was run along a separate lateral flow test strip. A negative control in which no peptide was added was also run as a negative control. 15 μl of running buffer wash was then run along each lateral flow test strip."}, "[2]": {"test_system": "antisera CF1064", "settings": "ELISA and lateral flow, FIG. 19", "description": "To refine the peptide design and remove peripheral interactions of antibodies not binding the galactose moiety in the peptide, the original sequence MOL136 was truncated to a shorter sequence MOL600: […]"}, "[3]": {"test_system": "T1, MOL600c: NH2-Cyc-DAla-Ser[Gal-Sial]-DAla-Arg-PEG-Biotin", "T1 sequence": "XASAR"}, "[4]": {"test_system": "T2, MOL136c: biotin-PEG-Asp-Glu-DSer-Nva-Cyc-DAla-Ser[Gal-Sial]-DAla-Arg-Phe-DSer-Val-OH", "T2 sequence": "DESXXASARFSV"}, "[5]": {"test_system": "sialidase", "settings": "25 U/ml sialidase in PBST for 5 minutes", "method": "Thus, a capture zone was first formed on each lateral flow test strip using 1.5 mg/ml streptavidin. Then, 3 μl of each peptide (12.5 ng/ml peptide in PBST) was mixed with 10 μl of gold-labelled CF1064 and 15 μl of running buffer (0.5 M Tris at pH 7.5+3% BSA+0.5% Triton X-100) before each sample was run along a separate lateral flow test strip. A negative control in which no peptide was added was also run as a negative control. 15 μl of running buffer wash was then run along each lateral flow test strip.\nThe procedure described in Example 4B was repeated in the presence of 25 U/ml sialidase. A sample in which sialidase was absent was used as a negative control. A further negative control was run in which no peptide and no sialidase was included in the sample. As a positive control, MOL136 was used in place of MOL136c in the presence of 25 U/ml sialidase."}, "[6]": {"test_system": "MOL600", "assay": "Antibody binding affinity and kinetics by bio-inferometry, peptide immobilised on biosensor by streptavidin/biotin", "experimental": "(§1) MOL615 was biotinylated to yield MOL600 (sequence provided in Example 7) and antibody binding affinity and kinetics was measured using bio-inferometry. […] Binding of the antibody was detected by a shift in the reflected light interference."}, "[7]": {"biological_target": "T3, MOL600: NH2-Cyc-DAla-Ser[Gal]-DAla-Arg-PEG-Biotin (reading uncertain; also: printed as NH2-Cyc-DAla-Ser[Gal]-DAla-Arg-PEG-Biotin)", "T3 construct": "MOL600 is its de-sialylated form; Immobilised on a streptavidin biosensor through biotin", "T3 peptide": "H-[Ac6c][dA]S(Gal)[dA]R-{PEG-Biotin′}", "assay": "bio-layer interferometry, peptide immobilised on streptavidin biosensor, antibody at 1, 2, 4, 8 or 16 nM", "experimental": "as §1"}, "[8]": {"settings": "antibody at 1, 2, 4, 8 or 16 nM, MOL600 immobilised"}}, "note": "Non-standard residues stand in square brackets, D forms with d. Primed or numbered codes have the meaning given here. Gal = galactose on Ser (no sialyl group); Biotin′ = not defined here; Ac6c = NC1(C(=O)O)CCCCC1; PEG = not defined here"}
{"molecule": "biotin-PEG-Asp-Glu-DSer-Nva-Cyc-DAla-Ser[Gal]-DAla-Arg-Phe-DSer-Val-OH [MOL136]", "values": [{"measurement": "signal in the capture zone (visible line on the test strip)", "setting": "[1]", "result": "clearly detected"}]}
{"molecule": "NH2—Cyc-DAla-Ser[Gal-Sial]-DAla-Arg-PEG-Biotin [MOL600c]", "values": [{"measurement": "performance compared with MOL136/MOL136c", "setting": "[2]", "result": "significant improvement in performance"}]}
{"molecule": "sialidase", "values": [{"measurement": "lateral flow test line signal", "setting": "[3]", "result": "signal has been recovered by spiking in sialidase"}, {"measurement": "lateral flow test line signal with gold-labelled CF1064", "setting": "[4]", "result": "A clear positive signal was observed in respect of MOL136c incubated in the presence of 25 U/ml sialidase in PBST for 5 minutes"}]}
{"molecule": "NH2—Cyc-DAla-Ser[Gal]-DAla-Arg-PEG-Biotin [MOL600]", "values": [{"measurement": "performance compared with MOL136/MOL136c", "setting": "[2]", "result": "significant improvement in performance"}]}
{"molecule": "biotin-PEG-Asp-Glu-DSer-Nva-Cyc-DAla-Ser[Gal-Sial]-DAla-Arg-Phe-DSer-Val-OH [MOL136c]", "values": [{"measurement": "lateral flow signal after sialidase incubation", "setting": "[5]", "result": "clear positive signal"}, {"measurement": "signal in the capture zone (visible line on the test strip)", "setting": "[1]", "result": "little/no signal"}]}
{"molecule": "antibody 125.1: rabbit monoclonal antibody, heavy chain SEQ ID NO: 7, light chain SEQ ID NO: 8, specific for Cyc-DAla-Ser[Gal]-DAla-Arg (antibody, listed as Oryctolagus cuniculus) heavy: QSVEESGGRLVTPGTPLTLTCTVSGFSLSSYSMDWVRQAPGKGLEWVGGITTTLHTFYATWAKGRFTISKTSSTTVDLKMTSLTTDDAATYFCARGGSSVIWGPGTLVTVSSGQPKAPSVFPLAPCCGDTPSSTVTLGCLVKGYLPEPVTVTWNSGTLTNGVRTFPSVRQSSGLYSLSSVVSVTSSSQPVTCNVAHPATNTKVDKTVAPSTCSKPTCPPPELLGGPSVFIFPPKPKDTLMISRTPEVTCVVVDVSEDDPEVQFTWYINNEQVRTARPPLREQQFNSTIRVVSTLPIAHEDWLRGKEFKCKVHNKALPAPIEKTISKARGQPLEPKVYTMGPPREELSSRSVSLTCMINGFYPSDISVEWEKNGKAEDNYKTTPAVLDSDGSYFLYSKLSVPTSEWQRGDVFTCSVMHEALHNHYTQKSISRSPG light: ALVMTQTPSPVSAAVGGTVTISCQSSQSVYGNNHLNWHQQKRGQPPKQLIGSASRLASGVPSRFKGSGSGTQFTLTISGVQCDDAATYYCQGSYYNGAWYVAFGGGTELEIKRDPVAPSVLLFPPSKEELTTGTATIVCVANKFYPSDITVTWKVDGTTQQSGIENSKTPQSPEDNTYSLSSTLSLTSAQYNSHSVYTCEVVQGSASPIVQSFNRGDC", "values": [{"measurement": "binding specificity for MOL600 compared to the sialylated form MOL600c", "setting": "[6]; FIG. 27", "result": "clearly specific for MOL600"}, {"measurement": "Koff", "setting": "[6]; [8]", "result": 0.000427, "unit": "s⁻¹"}, {"measurement": "Kon", "setting": "[6]; [8]", "result": 54080, "unit": "M⁻¹ s⁻¹"}]}
{"molecule": "monoclonal antibody 125.1 (antibody, V domains shown, Pyro-Glu(Q) at N-terminal of heavy chain; N-linked glycosylation at constant region N@285; additional O-linked glycosylation site between positions 213 and 216 (partly occupied); C-terminal lysine eliminated, Rabbit monoclonal from immunisation with KLH-MOL616; Gamma heavy chain and Kappa light chain) VH: QSVEESGGRLVTPGTPLTLTCTVSGFSLSSYSMDWVRQAPGKGLEWVGGITTTLHTFYATWAKGRFTISKTSSTTVDLKMTSLTTDDAATYFCARGGSSVIWGPGTLVTVSS VL: ALVMTQTPSPVSAAVGGTVTISCQSSQSVYGNNHLNWHQQKRGQPPKQLIGSASRLASGVPSRFKGSGSGTQFTLTISGVQCDDAATYYCQGSYYNGAWYVAFGGGTELEIKR", "values": [{"measurement": "Kd", "setting": "[7]", "result": 7.9, "unit": "nM"}, {"measurement": "koff", "setting": "[7]", "result": 0.000427, "unit": "s⁻¹"}, {"measurement": "kon", "setting": "[7]", "result": 54100, "unit": "M⁻¹ s⁻¹"}]}
